Legend:
Format in all cases: biochemical
[1] = HTP-analysis of yeast culture supernatants, no challenge (MUGal hydrolysis); details: activity of the variant/activity of Rd3BB (SEQ ID NO: 13), yeast supernatant
How it was run: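 Activity read as 4-methylumbelliferyl α-D-galactopyranoside hydrolysis: fluorescence (355/448 nm) after sodium carbonate stop, following 30-180 min at 37° C with 2 mM MUGal stock at pH 4.6–4.8. Enzyme source is unchallenged culture supernatant of INVSc1 yeast expressing GLA variants, grown 66-84 h at 30° C.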

[2] = HTP-analysis of supernatants pretreated with acid (MUGal hydrolysis); details: challenge at pH 3.3; activity of the variant/activity of Rd3BB (SEQ ID NO: 13); yeast supernatant
How it was run: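 Supernatants from INVSc1 yeast secreting GLA variants were challenged at 37° C. for 1-3 h in McIlvaine buffer at pH 3.3-4.3. Residual activity was then measured on 4 mM MUGal substrate stock at pH 4.8 with citrate buffer pH 4.3, over 30-180 min at 37° C. Reactions were quenched with sodium carbonate and read by fluorescence (Ex 355/Em 448 nm).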

[3] = HTP-analysis of supernatants pretreated with base (MUGal hydrolysis); details: challenge at pH 9.7; activity of the variant/activity of Rd3BB (SEQ ID NO: 13); yeast supernatant
How it was run: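 GLA variants secreted from yeast INVSc1; culture supernatants pre-incubated with McIlvaine buffer pH 7.0–8.2 or 200 mM bicarbonate pH 9.1–9.7 at 37° C. for 1–18 h. Residual activity: MUGal (4 mM stock) hydrolysis at pH 4.3–4.8, 37° C., 30–180 min, carbonate quench; fluorescence Ex 355/Em 448 nm.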

Molecule | Relative Activity of GLA Variants After No Challenge (NC) [1] | Relative Activity of GLA Variants After Challenge at pH 3.3 [2] | Relative Activity of GLA Variants After Challenge at pH 9.7 [3]
633 (protein, Synthetic Polypeptide sequence of Variant No. 633 of mature Human GLA) LDNGLARTPTMGWLHWERFMCNLDCQEEPDSCISEKLFMEMADRMVSEGWKDAGYEYLCIDDCWMAPQRDSEGRLQADPQRFPHGIRQLANSVHSKGLKLGIYADVGNKTCAGFPGSFGYYDIDAQTFADWGVDLLKFDGCYCDSLENLADGYKHMSLALNRTGRPIVYSCEWPLYMWPFQKPNYTEIRQYCNHWRNFADIDDSWASIKSILDWTSRNQERIVDVAGPGGWNDPDMLVIGNFGLSWDQQVTQMALWAIMAAPLFMSNDLRHISPQAKALLQDKDVIAINQDPLGKQGYQLRKGDNFEVWERPLSGDAWAVAIINRQEIGGPRSYTIPVASLGKGVACNPACFITQLLPVKRQLGFYNWTSRLKSHINPTGTVLLQLENTMQMSLKDLL | + (+ = 1.5 to 5 relative activity over Rd3BB (SEQ ID NO: 13)) | ++ (++ = >5 to 10 relative activity over Rd3BB (SEQ ID NO: 13)) | ++ (++ = >5 to 10 relative activity over Rd3BB (SEQ ID NO: 13))
616 (protein, Synthetic Polypeptide sequence of Variant No. 616 of mature Human GLA) LDNGLARTPTMGWLHWERFMCNLDCQEEPDSCISEKLFMEMAERMVTEGWKDAGYEYLCIDDCWMAPQRDSEGRLQADPQRFPHGIRQLANHVHSKGLKLGIYADVGNKTCAGFPGSFGYYDIDAQTFADWGVDLLKFDGCYCDSLENLADGYKHMSLALNRTGRPIVYSCEWPLYMWPFQKPNYTEIRQYCNHWRNFADIDDSWASIKSILDWTSRNQERIVDVAGPGGWNDPDMLVIGNFGLSWDQQVTQMALWAIWAAPLFMSNDLRAISPQAKALLQDKDVIAINQDPLGKQGYQLRKGDNFEVWERPLSGDAWAVAIINRQEIGGPRSYTIPVASLGKGVACNPACFITQLLPVKRQLGFYNWTSRLKSHINPTGTVLLQLENTQQMSLKDLL | + (+ = 1.5 to 5 relative activity over Rd3BB (SEQ ID NO: 13)) | + (+ = 1.5 to 5 relative activity over Rd3BB (SEQ ID NO: 13)) | ++ (++ = >5 to 10 relative activity over Rd3BB (SEQ ID NO: 13))
614 (protein, Synthetic Polypeptide sequence of Variant No. 614 of mature Human GLA) LDNGLARTPTMGWLHWERFMCNLDCQEEPDSCISEKLFMEMAERMVTEGWKDAGYEYLCIDDCWMAPQRDSEGRLQADPQRFPHGIRQLANHVHSKGLKLGIYADVGNKTCAGFPGSFGYYDIDAQTFADWGVDLLKFDGCYCDSLENLADGYKHMSLALNRTGRPIVYSCEWPLYMWPFQKPNYTEIRQYCNHWRNFADIDDSWASIKSILDWTSRNQERIVDVAGPGGWNDPDMLVIGNFGLSWDQQVTQMALWAIMAAPLFMSNDLRHISPQAKALLQDKDVIAINQDPLGKQGYQLRKGDNFEVWERPLSGDAWAVAIINRQEIGGPRSYTIPVASLGKGVACNPACFITQLLPVKRQLGFYNWTSRLKSHINPTGTVLLQLENTMQMSLKDLL | + (+ = 1.5 to 5 relative activity over Rd3BB (SEQ ID NO: 13)) | ++ (++ = >5 to 10 relative activity over Rd3BB (SEQ ID NO: 13)) | ++ (++ = >5 to 10 relative activity over Rd3BB (SEQ ID NO: 13))
610 (protein, Synthetic Polypeptide sequence of Variant No. 610 of mature Human GLA) LDNGLARTPTMGWLHWERFMCNLDCQEEPDSCISEKLFMEMAERMVTEGWKDAGYEYLCIDDCWMAPQRDSEGRLQADPQRFPHGIRQLANHVHSKGLKLGIYADVGNKTCAGFPGSFGYYDIDAQTFADWGVDLLKFDGCYCDSLENLADGYKHMSLALNRTGRPIVYSCEWPLYMWPFQKPNYTEIRQYCNHWRNFADIDDSWASIKSILDWTSRNQERIVDVAGPGGWNDPDMLVIGNFGLSWDQQVTQMALWAIEAAPLFMSNDLRHISPQAKALLQDKDVIAINQDPLGKQGYQLRKGDNFEVWERPLSGDAWAVAIINRQEIGGPRSYTIPVASLGKGVACNPACFITQLLPVKRQLGFYNWTSRLKSHINPTGTVLLQLENTQQMSLKDLL | + (+ = 1.5 to 5 relative activity over Rd3BB (SEQ ID NO: 13)) | + (+ = 1.5 to 5 relative activity over Rd3BB (SEQ ID NO: 13)) | − (− = <1.5 relative activity to Rd3BB (SEQ ID NO: 13))
634 (protein, Synthetic Polypeptide sequence of Variant No. 634 of mature Human GLA) LDNGLARTPTMGWLHWERFMCNLDCQEEPDSCISEKLFMEMADRMVSEGWKDAGYEYLCIDDCWMAPQRDSEGRLQADPQRFPHGIRQLANEVHSKGLKLGIYADVGNKTCAGFPGSFGYYDIDAQTFADWGVDLLKFDGCYCDSLENLADGYKHMSLALNRTGRPIVYSCEWPLYMWPFQKPNYTEIRQYCNHWRNFADIDDSWASIKSILDWTSRNQERIVDVAGPGGWNDPDMLVIGNFGLSWDQQVTQMALWAIMAAPLFMSNDLRHISPQAKALLQDKDVIAINQDPLGKQGYQLRKGDNFEVWERPLSGDAWAVAIINRQEIGGPRSYTIPVASLGKGVACNPACFITQLLPVKRQLGFYNWTSRLKSHINPTGTVLLQLENTMQMSLKDLL | + (+ = 1.5 to 5 relative activity over Rd3BB (SEQ ID NO: 13)) | ++ (++ = >5 to 10 relative activity over Rd3BB (SEQ ID NO: 13)) | ++ (++ = >5 to 10 relative activity over Rd3BB (SEQ ID NO: 13))
611 (protein, Synthetic Polypeptide sequence of Variant No. 611 of mature Human GLA) LDNGLARTPTMGWLHWERFMCNLDCQEEPDSCISEKLFMEMAERMVSEGWKDAGYEYLCIDDCWMAPQRDSEGRLQADPQRFPHGIRQLANHVHSKGLKLGIYADVGNKTCAGFPGSFGYYDIDAQTFADWGVDLLKFDGCYCDSLENLADGYKHMSLALNRTGRPIVYSCEWPLYMWPFQKPNYTEIRQYCNHWRNFADIDDSWASIKSILDWTSRNQERIVDVAGPGGWNDPDMLVIGNFGLSWDQQVTQMALWAIMAAPLFMSNDLRHISPQAKALLQDKDVIAINQDPLGKQGYQLRKGDNFEVWERPLSGDAWAVAIINRQEIGGPRSYTIPVASLGKGVACNPACFITQLLPVKRQLGFYNWTSRLKSHINPTGTVLLQLENTQQMSLKDLL | + (+ = 1.5 to 5 relative activity over Rd3BB (SEQ ID NO: 13)) | +++ (+++ = >10 relative activity over Rd3BB (SEQ ID NO: 13)) | ++ (++ = >5 to 10 relative activity over Rd3BB (SEQ ID NO: 13))
613 (protein, Synthetic Polypeptide sequence of Variant No. 613 of mature Human GLA) LDNGLARTPTMGWLHWERFMCNLDCQEEPDSCISEKLFMEMAERMVNEGWKDAGYEYLCIDDCWMAPQRDSEGRLQADPQRFPHGIRQLANHVHSKGLKLGIYADVGNKTCAGFPGSFGYYDIDAQTFADWGVDLLKFDGCYCDSLENLADGYKHMSLALNRTGRPIVYSCEWPLYMWPFQKPNYTEIRQYCNHWRNFADIDDSWASIKSILDWTSRNQERIVDVAGPGGWNDPDMLVIGNFGLSWDQQVTQMALWAIMAAPLFMSNDLRAISPQAKALLQDKDVIAINQDPLGKQGYQLRKGDNFEVWERPLSGDAWAVAIINRQEIGGPRSYTIPVASLGKGVACNPACFITQLLPVKRQLGFYNWTSRLKSHINPTGTVLLQLENTQQMSLKDLL | + (+ = 1.5 to 5 relative activity over Rd3BB (SEQ ID NO: 13)) | ++ (++ = >5 to 10 relative activity over Rd3BB (SEQ ID NO: 13)) | ++ (++ = >5 to 10 relative activity over Rd3BB (SEQ ID NO: 13))
615 (protein, Synthetic Polypeptide sequence of Variant No. 615 of mature Human GLA) LDNGLARTPTMGWLHWERFMCNLDCQEEPDSCISEKLFMEMAERMVNEGWKDAGYEYLCIDDCWMAPQRDSEGRLQADPQRFPHGIRQLANHVHSKGLKLGIYADVGNKTCAGFPGSFGYYDIDAQTFADWGVDLLKFDGCYCDSLENLADGYKHMSLALNRTGRPIVYSCEWPLYMWPFQKPNYTEIRQYCNHWRNFADIDDSWASIKSILDWTSRNQERIVDVAGPGGWNDPDMLVIGNFGLSWDQQVTQMALWAIMAAPLFMSNDLRHISPQAKALLQDKDVIAINQDPLGKQGYQLRKGDNFEVWERPLSGDAWAVAIINRQEIGGPRSYTIPVASLGKGVACNPACFITQLLPVKRQLGFYNWTSRLKSHINPTGTVLLQLENTHQMSLKDLL | + (+ = 1.5 to 5 relative activity over Rd3BB (SEQ ID NO: 13)) | ++ (++ = >5 to 10 relative activity over Rd3BB (SEQ ID NO: 13)) | ++ (++ = >5 to 10 relative activity over Rd3BB (SEQ ID NO: 13))

Reference: patent publication US11278600B2, “Human alpha-galactosidase variants” (Codexis, Inc., priority 2014, dated 2022)
